T1: cynomolgus ABCG2 (Macaca fascicularis) (Macaca fascicularis (cynomolgus), UniProt Q5MB13 1-654 (rhesus entry))
T1 construct: also called cABCG2
T1 sequence: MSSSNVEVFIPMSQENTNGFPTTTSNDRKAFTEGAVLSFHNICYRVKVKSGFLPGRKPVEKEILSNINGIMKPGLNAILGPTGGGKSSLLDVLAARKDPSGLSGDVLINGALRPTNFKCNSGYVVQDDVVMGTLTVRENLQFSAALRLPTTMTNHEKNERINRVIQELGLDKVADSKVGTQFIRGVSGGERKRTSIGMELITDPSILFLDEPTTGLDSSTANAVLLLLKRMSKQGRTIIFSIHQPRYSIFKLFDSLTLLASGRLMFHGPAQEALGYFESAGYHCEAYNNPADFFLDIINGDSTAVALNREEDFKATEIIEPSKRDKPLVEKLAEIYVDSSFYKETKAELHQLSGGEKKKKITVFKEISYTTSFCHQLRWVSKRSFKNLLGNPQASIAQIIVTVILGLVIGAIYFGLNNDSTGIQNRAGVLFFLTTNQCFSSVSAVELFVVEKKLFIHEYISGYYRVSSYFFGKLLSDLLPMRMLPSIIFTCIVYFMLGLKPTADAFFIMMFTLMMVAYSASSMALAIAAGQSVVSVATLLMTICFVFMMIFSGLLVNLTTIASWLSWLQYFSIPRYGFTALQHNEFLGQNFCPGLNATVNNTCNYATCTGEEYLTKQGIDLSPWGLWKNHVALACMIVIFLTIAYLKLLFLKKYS

T2: human ABCG2 (human, UniProt Q9UNQ0 1-655)
T2 construct: also called hG2; KPG2
T2 sequence: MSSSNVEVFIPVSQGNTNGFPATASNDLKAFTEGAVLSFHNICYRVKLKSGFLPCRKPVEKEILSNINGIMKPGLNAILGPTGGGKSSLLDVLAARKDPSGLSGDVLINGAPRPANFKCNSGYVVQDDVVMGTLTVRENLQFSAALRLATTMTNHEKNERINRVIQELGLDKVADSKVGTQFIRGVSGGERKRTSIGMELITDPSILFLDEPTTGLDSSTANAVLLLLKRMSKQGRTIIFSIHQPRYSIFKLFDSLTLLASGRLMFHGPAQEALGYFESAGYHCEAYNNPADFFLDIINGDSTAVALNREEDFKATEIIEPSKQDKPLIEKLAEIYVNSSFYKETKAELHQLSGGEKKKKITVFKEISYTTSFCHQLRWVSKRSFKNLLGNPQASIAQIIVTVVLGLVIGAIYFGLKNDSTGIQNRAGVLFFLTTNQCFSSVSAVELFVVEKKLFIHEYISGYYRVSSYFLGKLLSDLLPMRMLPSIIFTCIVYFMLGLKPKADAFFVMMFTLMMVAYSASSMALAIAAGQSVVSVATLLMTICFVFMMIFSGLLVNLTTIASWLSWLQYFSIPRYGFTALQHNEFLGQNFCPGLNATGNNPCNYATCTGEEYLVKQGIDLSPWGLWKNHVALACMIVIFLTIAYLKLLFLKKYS

B1: G2.343 rat (antibody, human IgG1, V domains shown)
VH: SVQLKESGPGLVQPSQTLSLTCTVSGFSLTSNGVSWVRQPPGKGLEWIAAISSGGSTYYNSVLKSRLSISRDTSKSQVFLKMNSLQTEDTAIYFCTRDTYYGYNQIPFVYWGQGTLVTVSS
VL: DVVLAQTPPTLSATIGQSVSISCRSSQSLLHSSGNTYLNWLLQRPGQPPQLLIYLVSRLESRVPNRFSGSGSGTDFTLKISGVEAEDLGVYYCVQSTHAPRTFGGGTKLELK
notes: Variable regions cloned onto human IgG1 constant heavy chain and human kappa constant light chain
B2: G2.346 rat (antibody, human IgG1, V domains shown)
VH: B1 VH with L4W, V62G, D98A, T99G, Q105P, P107W, V109T
VL: B1 VL with L4M, A5T, S32G, L51I, N65K, E86D, R101F, G105S
notes: as for B1
B3: G2.420 rat (antibody, human IgG1, V domains shown)
VH: SVQLMESGPGLVQPSQTLSLTCTVSGFSLNSYNVNWVRQPPGKGLEWIAAISSGGSTYYNSVLKSRLSITRDTSKSQVFLKMNSLQTEDTAMYFCARSGYYSSYMNWGQGVMVTVSS
VL: B1 VL with L4M, A5T, S33T, S61Y, R62G, V94A, P100L, R101N, G105A
notes: Variable regions cloned onto human IgG1 constant heavy chain and human kappa constant light chain; also called G.420; KNJY-G2-420
B4: G2.630 rat (antibody, human IgG1, V domains shown)
VH: EVQLVESGPGLVKPSQSLSLTCSVTGYTITSGYDWTWIRKFPGNKMEWMGYISYSGFTNYNPSLRSRISITRDTSKNQFFLQLNSVTTEDTATYYCTRTRGYNPFAYWGQGTLVTVSS
VL: DVVMTQSPSLLSASVGDRVTLSCKAGRNINNYLAWYQQKLGKAPKLLIYNTNSLQTGIPSRFSGSGSGTDFTLTISSLQPEDVATYFCQQYNSWTTFGSGTKLEIK
notes: as for B1
B5: G2.318 rat (antibody, human IgG1, V domains shown)
VH: B4 VH with Q3K, V5L, T36S, F57W, T71S, T97A, T99V
VL: B4 VL with V2I, R27Q, K42E, T51A
notes: as for B1
B6: G2.320 rat (antibody, human IgG1, V domains shown)
VH: B4 VH with V5E, T112A, L113S, T115S, V116S, S117A
VL: B4 VL with V2I
notes: as for B1
B7: G2.302 mouse (antibody, human IgG1, V domains shown)
VH: QIQLQQSGPELVRPGASVKISCKASGYTFTDYYINWVKQRPGQGLEWIGWIYPGNVNVKYNEKFKGKATLTVDTSSSTGYMQLRSLTSEDSAVYFCARSIGLRYFDNWGQGTTLTVSS
VL: EKVLTQSPAIMSASLGEKVTMSCRASSSVHYMYWHQQKSDASPRLWIYYTSNLAPGVPARFSGSGSGNFYSLTISSVEDEDGATYYCQQFTTSTWTFGGGTKLEIK
notes: Variable regions cloned onto human IgG1 constant heavy chain and human kappa constant light chain; also called G.302
B8: G2.257 mouse (antibody, human IgG1, V domains shown)
VH: EVQLQQSGPELVKPGASLKISCKTFGYSFTGYYMHWVKQSPEKSLEWIGKIVPSTGGTTYNQKFKAKATLTVDKSSFTAYMQLKSLTTEDSAVYYCAREKVYGYDVYYFDYWGQGTTLTVSS
VL: DIQMTQTPSSLSASLGDRVTITCSTSQGVRSYLNWYQQKPDGSVKLLIYYTSSLHSGVPSRFSGSGSGTDYSLTISNLEPEDIATYYCQQYSKLPYTFGGGTKLELK
notes: as for B1
B9: G2.348 rat (antibody, human IgG1, V domains shown)
VH: EVQLVESGPGLMQPSQTLSLTCTVSGFSLTSNGVSWVRQPPGKGLEWIATISSGGNTNYNSALKSRLSISRDTSKSQVFLKMNSLQTEDTAIYFCTRVGYYGYNPIWFAYWGQGTLVTVSS
VL: DVVMTQTPPTLSATIGHSVSISCRSSQSLFHSSGNTYLSWFLQRPGQPPQLLIYLVSRLESRVPNRFSGSGSGTDFTLKISVLEAEDLGVYYCVQTTHAPFTFGSGTKLEIK
notes: as for B1
B10: G2.302 Humanized (antibody, human IgG1, V domains shown)
VH: EIQLVQSGAEVKKPGASVKVSCKASGYTFTDYYINWVRQAPGQRLEWIGWIYPGNVNVKYNEKFKGRATLTVDTSASTGYMELSSLRSEDTAVYFCARSIGLRYFDNWGQGTLVTVSS
VL: EKVLTQSPATLSLSPGERATLSCRASSSVHYMYWHQQKPGQSPRLWIYYTSNLAPGVPARFSGSGSGNDYTLTISSLEPEDFAVYYCQQFTTSTWTFGGGTKLEIK
B11: G2.394 rat (antibody, human IgG1, V domains shown)
VH: EVQLKESGPGLVQPSQTLSLTCTVSGFSLTDYTITWVRQPPGKGLEWIAATSVGGATHYNSPLKSRLSISGDTSKSQVFLKMNSLRTEDTAMYFCVRSGYYSTYMNWGRGTMVTVSS
VL: DVVMTQTPPTFSATIGQSVSISCRSSQSLLHSSGNTFLSWLLQRPGQPPQLLIYLVSRLEFGVPNRFSGSGSGTDFTLKISGVEAEDLGVYYCVQSTHVMNTFGAGTKLEIK
notes: as for B1
B12: G2.173 mouse (antibody, human IgG1, V domains shown)
VH: QVQLQQSGADLVRPGASVKLSCTASGFNIKDDYVHWVKQRPEQGLEWIGRIDPANGNTRYAPKFRGKATMTADTSSNTAYLQLSSLTSADTAVYYCSPPLWVGGFAYWGQGTLVTVSS
VL: DVVMTQTPLSLPVSLGDQASISCRSSQSLVHSDVNTYLHWYLQRPGQSPKLLIYKVSNRFSGVPDRFSGSGSGTDFTLKISRVESEDLGIYFCSQTTHVPYTFGGGTKLEIK
notes: as for B1
B13: G2.173 Humanized 1 (antibody, human IgG1, V domains shown)
VH: EVQLVQSGAEVKKPGASVKVSCKASGFNIKDDYVHWVRQAPGQGLEWIGRIDPANGNTRYAPKFRGRATMTADTSISTAYMELSRLRSDDTAVYYCSPPLWVGGFAYWGQGTLVTVSS
VL: B12 VL with T7S, S14T, D17Q, Q18P, L42Q, K50R, S85A, L88V, I90V
B14: G2.173 Humanized 2 (antibody, human IgG1, V domains shown)
VH: B13 VH with N55Q
VL: B12 VL with T7S, S14T, D17Q, Q18P, L42Q, K50R, S85A, L88V, I90V
B15: G2.173 Humanized 3 (antibody, human IgG1, V domains shown)
VH: B13 VH with N55S
VL: B12 VL with T7S, S14T, D17Q, Q18P, L42Q, K50R, S85A, L88V, I90V
B16: G2.65 mouse (antibody, human IgG1, V domains shown)
VH: QGQMHQSGAELVKPGASVKLSCKTSGFTFNSGYISWLKQKPRQSLEWIAWIYAGTGISNFNQKFTGKAQLTVDTSSSTAYMQLSSLTSADSAIYFCASGARKTLDFWGQGTSVTVSS
VL: DIQMTQSSSYLSVSVGGRVTITCKASDQINYWLAWYQQKPGNAPRLLISGATSLETGVPSRFSGSGSGKDYTLSITSFQTEDVATYYCQQYWTTPYTFGGGTKVEIK
notes: Variable regions cloned onto human IgG1 constant heavy chain and human kappa constant light chain; also called KNJY-G2-65
B17: G2.247 mouse (antibody, human IgG1, V domains shown)
VH: EVRLQQSGAELVKPGASVKLSCKTSGFTFSNSYISWLKQKPRQSLEWIAWIYAGTGGTNYNQKFTGKAQLTVDTSSSTAYMQLSSLTSEDSAIYYCATYGNFLYAMDNWGQGTSVTVSS
VL: DIVMTQSPASLSASVGETVTITCRASGNIHNYLAWYQQKQGKSPQLLVYNTKTLADGVPSRFSGSGSGTQYSLKINSLQPEDFGSYYCQHFWSTPWTFGGGTKLEIK
notes: as for B1
B18: G2.248 mouse (antibody, human IgG1, V domains shown)
VH: B17 VH with E1Q, R3Q, S7P
VL: B17 VL with V3Q, T5K
notes: as for B1
B19: G2.252 mouse (antibody, human IgG1, V domains shown)
VH: B17 VH with R3Q, N108Y, S114T, V115L
VL: B17 VL with D1E, M4L, T51A
notes: as for B1

Changes are numbered by the printed parent chain.

By Kd is commonly meant the concentration at which binding is half-saturated. Read a low Kd as tighter binding.

One assay deals with T1, cynomolgus ABCG2 (Macaca fascicularis). Nature of the assay: flow cytometry on cells expressing cynomolgus ABCG2. Background: A flow cytometer gives signals particle by particle.
Procedure: (§1) Cell Binding Assays. Antibody binding to cells was evaluated by flow cytometry. […] After incubating cells on ice for 30 min, cells were washed twice with flow cytometry buffer. Bound antibody was detected with PE-labeled F(ab′)₂ fragment goat anti-human IgG (Jackson ImmunoResearch) and evaluated on an Attune NxT flow cytometer.
Consider B1, for which the binding result is “binds”.
Turning to B2, the binding result was “binds”.
Same read-out and setting: next, B3: “binds”; B4: “binds”.
With B5, the binding result is on record as “binds”.
On the same count and under the same terms, next, B6: “binds”; B7: “binds”.
Turning to B8, the binding result is given as “binds”.
Still for that read-out and setting: under B9 stands “binds”.
Same read-out and setting: next, B10: “binds”; B11: “binds”.

In a further assay the target is T2, human ABCG2. The assay is described as follows: flow cytometry titration on 293T_ABCG2_OX cells; column Affinity for human ABCG2 (nM).
Procedure: as §1
B1 came in with a Kd of 40 nM.
Still for that read-out and setting: next, B2: 168 nM; B3: 56 nM.
On the same count and under the same terms, under B7 stands 25 nM.
Same read-out and setting: under B8 stands 7.9 nM; under B9, 80 nM.
In the case of B12, binding was characterised by a dissociation constant (Kd) of 17 nM.
B13 displayed a Kd of 46 nM.
B14 displayed a Kd of 273 nM.
Same read-out and setting: under B15 stands 44 nM.
Take B10: binding was put at a Kd of 59 nM.
For B11, the Kd is 88 nM.
Same read-out and setting: under B16 stands 179 nM; under B17, 59 nM; under B18, 125 nM.
Still for that read-out and setting: next, B19: 347 nM.

The next assay deals with T1, cynomolgus ABCG2 (Macaca fascicularis). Nature of the assay: flow cytometry on cells expressing cynomolgus ABCG2; paragraph 395: non-significant binding = -.
Procedure: as §1
Turning to B12, the binding result is recorded as “no binding”.
Same read-out and setting: under B13 stands “no binding”; under B14, “no binding”; under B15, “no binding”.
Still for that read-out and setting: under B16 stands “no binding”.
Still for that read-out and setting: under B17 stands “no binding”; under B18, “no binding”.
Take B19: the binding result is reported as “no binding”.

(Values after patent US20230212305A1 (published 2023).)
